Results: patent US20070185028A1, “Compositions and methods for treatment of protein misfolding and protein aggregation diseases” (priority 2004, published 2007)

Columns and labels:
[1] = molecular target: T1, equine alcohol dehydrogenase (ADH) (Equus caballus, UniProt P00327); assay: αB crystallin protein pin array with alcohol dehydrogenase; type: binding; conditions: ADH as ligand in the pin array
T1 construct: purchased Sigma-Aldrich, MO 05646
Excerpt: (§1) Synthesis of Pins, binding and detection of peptides binding to ligand proteins. The αB crystallin protein pin array was used to measure the interaction between peptides and chaperone target proteins including bovine βH crystallin, human γD crystallin, equine alcohol dehydrogenase (ADH) and porcine citrate synthase (CS) as described (FIG. 12). Ghosh and Clark, Protein Sci 14: 684-95, 2005.
(§2) Refer to the methods section for detailed protocols. The absorbance corresponding to the blue coloration in each well was measured at λ=450 nm and plotted against the amino acid sequence of the corresponding peptide in that well (FIGS. 13 and 14). Wells containing peptides that have strong interactions with target proteins are dark blue and wells containing peptides that have weak or no interaction with target proteins are light blue or clear.
(§3) The purity of the target proteins used in the pin array assays, bovine βH crystallin, human γD crystallin, equine alcohol dehydrogenase (ADH) and porcine citrate synthase (CS) were determined to be >90% by SDS-PAGE. In addition, primary antibodies for each target protein were specific to that target protein and consequently contaminating proteins that may bind to the peptides will not be detected. Eighty-four sequential and overlapping peptide fragments corresponding to residues 1-175 of human αB crystallin were synthesized employing a simultaneous peptide synthesis strategy developed by Geysen, called Multipin Peptide Synthesis (Mimotopes, San Diego, Calif.). Geysen, Southeast Asian J Trop Med Public Health 21: 523-33, 1990; Chin et al., J Org Chem 62: 538-539, 1997. Peptides were immobilized on derivatized polyethylene pins arranged in a microtiter ELISA plate format. Each peptide was eight amino acids in length and consecutive peptides were offset by two amino acids. All peptides were bound covalently to the surface of the plastic pins. The first peptide was 1MDIAIHHP8 and the last peptide was 168PAVTAAPK175 for human αB crystallin.
(§4) Ghosh and Clark, Protein Sci 14: 684-95, 2005. […] The intensity of the blue color in the wells was measured at 450 nm using an ELISA plate-reader (BioTek, Winooski, Vt.). The intensity of the blue color (plotted on the X-axis) was a measure of the interaction between αB crystallin peptides (plotted on the Y-axis) and target proteins. To measure the effect of temperature on the interactions between interactive peptides and the target proteins, the target proteins were heated in a water-bath at 45° C. for fifteen minutes prior to use. Pin arrays are unable to differentiate between monomers, dimers or oligomers of target proteins that exist in solution. Instead, pin arrays are very sensitive detectors of interactions between individual peptides and the entire population (monomers, dimers or oligomers) of specific target proteins that may exist in solution under specific conditions. Each target protein was assayed two to five times. A single pin array was used for all experiments and no change in interactions was observed after more than thirty repetitions. The last three peptides of the protein pin array, 163REEKPAVT170, 165EKPAVTAA172, 167PAVTAAPK174, correspond to the epitope (163REEKPAVTAAPKK175) recognized by the primary antibody for human αB crystallin. A positive reaction is observed for these three peptides in the absence of human αB crystallin as the ligand due to direct binding of the anti-human αB crystallin antibody to these three peptides. The loss of efficiency for the pin array was measured using this assay. The loss of efficiency for the pin array was determined to be <5% by after more than 30 assays.
The pattern of absorbance at k=450 nm when αB crystallin peptides were assayed with unheated and pre-heated ADH was similar to the absorbance pattern obtained with unheated and pre-heated βH/γD crystallin (FIG. 17). […]

[2] = as provided by manufacturer (Mimotopes); cited from earlier work
beta amyloid = beta amyloid (Homo sapiens, UniProt P05067); assay: αB crystallin protein pin array, binding of beta amyloid; conditions: immobilized 8-mer peptide; absorption at 450 nm
Excerpt: αB Crystallin peptides that bind the target protein beta-amyloid were identified by screening an αB crystallin protein pin array, which provides a systematic method for evaluating interactions between peptides corresponding to residues 1-175 of human αB crystallin and selected target proteins in a parallel and simultaneous manner.
Peptides were synthesized on derivatized polyethylene pins arranged in a microtiter plate format. Each peptide was 8 amino acids in length and consecutive peptides were offset by 2 amino acids. All peptides were covalently bonded to the surface plastic pins. The first immobilized peptide was 1MDIAIHHP8 and the last peptide was 168PAVTAAPK175 for the human αB crystallin.
After synthesis, the pins were pre-coated at room temperature with 2% Bovine Serum Albumin (BSA), 0.1% Tween-20 and 0.1% Sodium azide in 10 mM phosphate buffered saline pH 7.2 (PBS) for 1 hr, and washed three times for 10 mins each with 10 mM PBS. To screen for binding to the peptides, fixed concentrations of the target protein beta amyloid was dissolved in 10 mM PBS, containing 0.05% Tween-20, added to each well and incubated for 1 hr at room temperature. The pin array was washed three times for 10 mins each with 10 mM PBS, containing 0.05% Tween-20. Monoclonal or polyclonal primary antibodies for the target protein beta amyloid was diluted into PBS buffer, added to each well and incubated for 1 hr at room temperature. Subsequently, the pin array was washed three times for 10 mins each with 10 mM PBS containing 0.05% Tween-20. Anti-rabbit horse-radish peroxidase conjugate secondary antibodies was diluted into PBS buffer, added to each well and incubated for 1 hr at room temperature. The pin array was washed three times for 10 mins each with 10 mM PBS containing 0.05% Tween-20. A chromogenic substrate of horse-radish peroxidase 3,3′,5,5′-Tetramethylbenzidine (TMB) (Pharmingen, San Diego, Calif.) which is colorless was added, and the reaction was carried out for 45 min.
The reaction was stopped by adding 6N sulfuric acid, which changes the color from blue to yellow. The absorption at 450 nm was measured by an ELISA reader (BioTek, Winooski, Vt.).
The pin array was regenerated by sonication in a water bath (VWR Aquasonic, West Chester, Pa.) with 100 mM PBS, containing 1% Sodium dodecyl sulfate (SDS) and 0.1% 2-Mercaptoethanol@60° C. for 10 mins. Next, the pin array was rinsed three times in deionized water, preheated to 60° C. for 30 secs each time, and shaken in water preheated at 60° C. for 30 min. The pin array was then washed with methanol at 60° C. for 15 secs and air-dried and stored @−20° C. for future use. Each target protein was assayed 2-5 times against the human αB crystallin protein pin array peptides to verify the reproducibility of the results. Peptides numbered 5, 7, 8, 9, 13, 19, 22, 23, 24, 27, 35, 38, 45, 51, 52, 56, 57, 61, 66, 71, 72, and 79 in Table 2 reproducibly tested positive in the protein pin assay.

bovine βH crystallin = assay: αB crystallin protein pin array with βH crystallin; type: binding; conditions: unheated βH crystallin, 23° C.; similar maxima pre-heated 45° C.
Excerpt: as §1, §2, §3, §4
Protein pin arrays enabled the identification of interactive sequences necessary for the chaperone activity of human αB crystallin. Interactions between immobilized 8-mer human αB crystallin peptides and unheated and pre-heated βH crystallin, a natural protein constitute of lens cells, were measured as absorbances at λ=450 nm at 23° C. […]

[3] = molecular target: T2, porcine citrate synthase (CS) (Sus scrofa, UniProt P00889); assay: αB crystallin protein pin array with citrate synthase; type: binding; conditions: CS as target protein in the pin array
T2 construct: purchased Roche Diagnostics, IN 103 381
T2 sequence (P00889 28-464): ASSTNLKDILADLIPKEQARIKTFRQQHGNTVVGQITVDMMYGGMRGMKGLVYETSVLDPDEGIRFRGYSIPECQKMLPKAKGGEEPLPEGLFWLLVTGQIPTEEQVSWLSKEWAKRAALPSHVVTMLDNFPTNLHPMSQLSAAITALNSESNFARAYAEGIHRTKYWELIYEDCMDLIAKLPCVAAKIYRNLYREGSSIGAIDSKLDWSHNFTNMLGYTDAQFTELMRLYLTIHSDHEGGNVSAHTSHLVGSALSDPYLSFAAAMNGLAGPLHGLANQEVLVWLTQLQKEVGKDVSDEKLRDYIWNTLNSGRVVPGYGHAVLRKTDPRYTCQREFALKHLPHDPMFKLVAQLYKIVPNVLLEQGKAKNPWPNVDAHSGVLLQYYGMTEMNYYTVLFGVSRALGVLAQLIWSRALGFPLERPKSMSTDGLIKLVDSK
Excerpt: as §1, §2, §3, §4
The pattern of absorbance at λ=450 nm when αB crystallin peptides were assayed with unheated and pre-heated CS was similar to the absorbance pattern obtained with unheated and pre-heated βH/γD crystallin and ADH (FIG. 18). […]

human γD crystallin = molecular target: T3, human γD crystallin (Homo sapiens, UniProt P07320); assay: αB crystallin protein pin array with γD crystallin; type: binding; conditions: unheated γD crystallin; similar maxima pre-heated 45° C.
T3 construct: made in house
T3 sequence (P07320 1-174): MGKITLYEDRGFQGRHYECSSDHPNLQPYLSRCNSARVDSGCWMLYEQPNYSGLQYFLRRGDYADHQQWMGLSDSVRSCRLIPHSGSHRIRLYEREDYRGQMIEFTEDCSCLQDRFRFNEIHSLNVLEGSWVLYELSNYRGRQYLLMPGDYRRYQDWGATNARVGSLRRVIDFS
Excerpt: as §1, §2, §3, §4
When βH crystallin was replaced with γD crystallin, a native protein constituent of lens cytoplasm from the same gene family as the β crystallins, as the ligand in the pin array, twelve interactive sequences were identified (FIG. 14: striped bars). […]

T1 sequence (P00327 whole entry): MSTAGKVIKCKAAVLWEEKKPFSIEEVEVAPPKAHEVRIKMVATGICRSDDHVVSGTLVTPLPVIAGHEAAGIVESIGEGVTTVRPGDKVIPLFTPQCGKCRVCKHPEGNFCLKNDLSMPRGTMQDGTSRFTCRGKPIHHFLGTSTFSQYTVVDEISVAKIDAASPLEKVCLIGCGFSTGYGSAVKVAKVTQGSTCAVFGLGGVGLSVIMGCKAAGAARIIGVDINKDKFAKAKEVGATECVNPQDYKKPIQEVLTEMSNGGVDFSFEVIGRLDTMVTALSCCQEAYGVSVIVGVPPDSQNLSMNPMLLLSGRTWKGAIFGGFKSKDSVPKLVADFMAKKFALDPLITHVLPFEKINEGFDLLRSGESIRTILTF

Sequence	absorbance at 450 nm, interaction with ADH [1]	Hydrophobicity [2]	binding of beta amyloid in the protein pin assay (beta amyloid)	absorbance at 450 nm, interaction with βH crystallin (bovine βH crystallin)	absorbance at 450 nm, interaction with CS [3]	absorbance at 450 nm, interaction with γD crystallin (human γD crystallin)
FFGEHLLE [Peptide 14]	Maximum absorbances	0.73				
FISREFHR [Peptide 57]		0.35	positive	Maximum absorbances	absorbance maxima	
FPFHSPSR [Peptide 8]		0.51	positive		absorbance maxima	
FYLRPPSF [Peptide 24]		0.83	positive	Maximum absorbances	absorbance maxima	maximum absorbances
GVLTVNGP [Peptide 71]	Maximum absorbances	0.57	positive	Maximum absorbances		maximum absorbances
LFPTSTSL [Peptide 19]	Maximum absorbances	0.79	positive			
LRAPSWFD [Peptide 28]		0.62			absorbance maxima	
LRPPSFLR [Peptide 25]	Maximum absorbances	0.57				
LTVNGPRK [Peptide 72]		0.16	positive		absorbance maxima	
PFFPFHSP [Peptide 7]	Maximum absorbances	0.95	positive			maximum absorbances
RLEKDRFS [Peptide 35]	Maximum absorbances	−0.12	positive	Maximum absorbances		
RTIPITRE [Peptide 79]	Maximum absorbances	0.27	positive	Maximum absorbances	absorbance maxima	
SFLRAPSW [Peptide 27]		0.71	positive			maximum absorbances
SLSPFYLR [Peptide 22]	Maximum absorbances	0.72	positive		absorbance maxima	maximum absorbances
SREFHRKY [Peptide 58]	Maximum absorbances	−0.1				
